Source: US20160356775

Key:
[1] = target: T1, full length recombinant human ERα protein (Invitrogen), P03372
T1 chain: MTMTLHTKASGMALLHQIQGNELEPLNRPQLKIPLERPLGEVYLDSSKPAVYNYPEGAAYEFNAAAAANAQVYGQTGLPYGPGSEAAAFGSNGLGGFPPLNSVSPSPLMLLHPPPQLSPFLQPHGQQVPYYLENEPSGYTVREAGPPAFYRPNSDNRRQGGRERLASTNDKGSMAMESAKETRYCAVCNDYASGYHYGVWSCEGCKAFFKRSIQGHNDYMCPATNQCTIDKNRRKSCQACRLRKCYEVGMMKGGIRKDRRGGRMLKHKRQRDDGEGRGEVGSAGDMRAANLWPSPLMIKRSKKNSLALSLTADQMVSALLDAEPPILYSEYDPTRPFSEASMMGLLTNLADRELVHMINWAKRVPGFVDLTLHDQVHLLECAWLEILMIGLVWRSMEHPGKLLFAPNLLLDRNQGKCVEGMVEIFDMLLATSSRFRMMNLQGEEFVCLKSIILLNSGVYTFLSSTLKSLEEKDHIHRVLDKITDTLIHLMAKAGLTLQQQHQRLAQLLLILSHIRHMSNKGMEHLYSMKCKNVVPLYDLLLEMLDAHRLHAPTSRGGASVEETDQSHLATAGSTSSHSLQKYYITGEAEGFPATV

[2] = target: recombinant PKC (Promega)
[3] = target: T2, GST-recombinant human FoXO3a, O43524
T2 chain: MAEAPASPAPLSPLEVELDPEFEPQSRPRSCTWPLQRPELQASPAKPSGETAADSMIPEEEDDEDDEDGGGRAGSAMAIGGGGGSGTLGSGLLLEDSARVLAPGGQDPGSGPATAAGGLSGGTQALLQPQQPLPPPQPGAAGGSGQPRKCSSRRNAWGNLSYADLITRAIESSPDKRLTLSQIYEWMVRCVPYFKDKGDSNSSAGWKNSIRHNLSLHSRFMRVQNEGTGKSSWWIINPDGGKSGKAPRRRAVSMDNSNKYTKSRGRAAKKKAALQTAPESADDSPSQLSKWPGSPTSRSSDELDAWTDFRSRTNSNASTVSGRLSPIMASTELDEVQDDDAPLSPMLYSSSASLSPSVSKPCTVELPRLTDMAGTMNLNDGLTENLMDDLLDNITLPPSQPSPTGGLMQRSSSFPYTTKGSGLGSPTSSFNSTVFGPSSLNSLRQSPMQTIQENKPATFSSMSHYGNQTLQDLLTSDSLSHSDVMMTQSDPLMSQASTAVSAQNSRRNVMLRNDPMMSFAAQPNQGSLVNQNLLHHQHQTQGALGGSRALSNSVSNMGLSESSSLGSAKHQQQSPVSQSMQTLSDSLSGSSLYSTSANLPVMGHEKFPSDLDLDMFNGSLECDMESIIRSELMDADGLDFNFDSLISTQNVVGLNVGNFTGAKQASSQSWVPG

B1: recombinant LMTK3 kinase domain (protein)
chain: LSYLQEIGSGWFGKVILGEIFSDYTPAQVVVKELRASAGPLEQRKFISEAQPYRSLQHPNVLQCLGLCVETLPFLLIMEFCQLGDLKRYLRAQRPPEGLSPELPPRDLRTLQRMGLEIARGLAHLHSHNYVHSDLALRNCLLTSDLTVRIGDYGLAHSNYKEDYYLTPERLWIPLRWAAPELLGELHGTFMVVDQSRESNIWSLGVTLWELFEFGAQPYRHLSDEEVLAFVVRQQHVKLARPRLKLPYADYWYDILQSCWRPPAQRPSASDLQLQLTYL
In the case of B1, the “in vitro phosphorylation followed by in vitro proteasome degradation assay” value [1] is reported as “phosphorylation of ERα by LMTK3 (FIG. 20d) rescued ERα from in vitro proteasome-mediated degradation (FIG. 20e)”, the “in vitro kinase assay, PKC phosphorylation of histone” value [2] is reported as “LMTK3 inhibits the ability of PKC to phosphorylate histone” and the “in vitro kinase assay (32P autoradiography)” value [3] is reported as “LMTK3 directly phosphorylates ... FoxO3a”.
